“And” between values parts separate entries of the source, which are not always exact repeats. Equal entries are not always repeated.
Experiments:
[1] = molecular target: recombinant TIMP-3 (human or mouse; Table 2 does not say which); test: AlphaScreen, biotinylated TIMP-3, Assay 1
[2] = molecular target: recombinant TIMP-3 (human or mouse; Table 2 does not say which); test: binding ELISA, Assay 1
[3] = molecular target: recombinant mouse TIMP-3 (mouse) (UniProt P39876); test: direct ELISA, coated muTIMP-3
[4] = molecular target: recombinant human TIMP-3 (human) (UniProt P35625); test: indirect ELISA, huTIMP-3 captured by anti-TIMP-3 clone 277128
[5] = molecular target: recombinant human TIMP-3 (human) (UniProt P35625); test: cell-based or functional assay
[6] = molecular target: MMP-13 (UniProt P45452); test: cell-based or functional assay
[7] = molecular target: recombinant TIMP-3 (human or mouse; Table 2 does not say which); test: binding ELISA, Assay 3
[8] = molecular target: recombinant TIMP-3 (human or mouse; Table 2 does not say which); test: AlphaScreen, biotinylated TIMP-3, Assay 2
[9] = molecular target: recombinant human TIMP-3 (human) (UniProt P35625); test: direct ELISA, coated huTIMP-3
[10] = molecular target: recombinant TIMP-3 (human or mouse; Table 2 does not say which); test: binding ELISA, Assay 2

recombinant TIMP-3 (human or mouse; Table 2 does not say which), sequence (P35625 24-211): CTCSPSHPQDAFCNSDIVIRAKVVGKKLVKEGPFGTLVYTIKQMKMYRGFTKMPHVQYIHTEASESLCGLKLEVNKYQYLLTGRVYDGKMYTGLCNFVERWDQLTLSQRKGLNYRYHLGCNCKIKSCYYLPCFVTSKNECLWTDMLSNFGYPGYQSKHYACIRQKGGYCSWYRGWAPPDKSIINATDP
recombinant human TIMP-3 (human), sequence (P35625 24-211 limits assumed): as the sequence (P35625 24-211) above
LRP-1 Cluster II (C II) (peptide), sequence (chain): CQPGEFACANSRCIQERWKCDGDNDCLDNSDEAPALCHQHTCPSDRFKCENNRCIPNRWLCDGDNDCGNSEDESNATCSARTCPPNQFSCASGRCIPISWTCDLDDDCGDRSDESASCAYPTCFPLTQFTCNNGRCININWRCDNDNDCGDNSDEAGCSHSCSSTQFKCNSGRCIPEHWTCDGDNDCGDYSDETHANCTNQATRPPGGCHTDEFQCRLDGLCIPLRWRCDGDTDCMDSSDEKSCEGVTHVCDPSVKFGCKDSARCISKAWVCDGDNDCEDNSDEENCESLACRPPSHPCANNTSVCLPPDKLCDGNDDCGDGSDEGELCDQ
recombinant mouse TIMP-3 (mouse), sequence (P39876 24-211 limits assumed): as the sequence (P35625 24-211) above, with T51S, D87E, Q103H, I183S counted along it
LRP-1 peptide LA13-15, sequence (chain): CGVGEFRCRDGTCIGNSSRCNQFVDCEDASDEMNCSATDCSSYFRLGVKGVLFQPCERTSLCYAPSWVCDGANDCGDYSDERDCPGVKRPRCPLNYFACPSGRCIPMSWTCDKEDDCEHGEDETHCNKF

| Substance | total signal (cps) [1] [cps] | EC50 [2] | Direct Inhibition of MMP13 (% decrease), 1000 nM [6] [%] | total signal (cps) [8] [cps] | other results |
| --- | --- | --- | --- | --- | --- |
| LRP-1 peptide LA23 | 2200 |  |  |  |  |
| LRP-1 peptide LA18-20 | 3000 | 300 nM |  |  |  |
| LRP-1 peptide LA16 | 2200 |  |  |  |  |
| LRP-1 peptide LA8 |  |  | 49 | 2000 | EC50 [3]: 255 nM; EC50 [4]: 198 nM; % of the inhibitory activity of TIMP-3 + peptide compared to TIMP-3 alone, 16 nM [5]: 101%; % of the inhibitory activity of TIMP-3 + peptide compared to TIMP-3 alone, 80 nM [5]: 71%; % of the inhibitory activity of TIMP-3 + peptide compared to TIMP-3 alone, 400 nM [5]: 74%; % of the inhibitory activity of TIMP-3 + peptide compared to TIMP-3 alone, 2000 nM [5]: 107%; EC50 [7]: 396 nM; EC50 [9]: 292 nM |
| LRP-1 peptide LA8-9 |  |  | 23 | 6000 | EC50 [3]: 173 nM; EC50 [4]: 113 nM; % of the inhibitory activity of TIMP-3 + peptide compared to TIMP-3 alone, 16 nM [5]: 95%; % of the inhibitory activity of TIMP-3 + peptide compared to TIMP-3 alone, 80 nM [5]: 91%; % of the inhibitory activity of TIMP-3 + peptide compared to TIMP-3 alone, 400 nM [5]: 91%; % of the inhibitory activity of TIMP-3 + peptide compared to TIMP-3 alone, 2000 nM [5]: 97%; EC50 [7]: 249 nM; EC50 [9]: 181 nM |
| LRP-1 peptide LA21-23 | 3000 | 243 nM |  |  |  |
| LRP-1 peptide LA11-13 | 1200 | 5000 nM | -2 |  |  |
| LRP-1 peptide LA13-15 | 1200 |  |  |  |  |
| LRP-1 peptide LA10 |  |  | 49 | 3000 |  |
| LRP-1 peptide LA9 |  |  | 41 | 2000 | % of the inhibitory activity of TIMP-3 + peptide compared to TIMP-3 alone, 16 nM [5]: 104%; % of the inhibitory activity of TIMP-3 + peptide compared to TIMP-3 alone, 80 nM [5]: 104%; % of the inhibitory activity of TIMP-3 + peptide compared to TIMP-3 alone, 400 nM [5]: 105%; % of the inhibitory activity of TIMP-3 + peptide compared to TIMP-3 alone, 2000 nM [5]: 107%; EC50 [7]: 1500 nM |
| LRP-1 peptide LA9-10 |  |  | 34 | 2000 | % of the inhibitory activity of TIMP-3 + peptide compared to TIMP-3 alone, 16 nM [5]: 105%; % of the inhibitory activity of TIMP-3 + peptide compared to TIMP-3 alone, 80 nM [5]: 107%; % of the inhibitory activity of TIMP-3 + peptide compared to TIMP-3 alone, 400 nM [5]: 105%; % of the inhibitory activity of TIMP-3 + peptide compared to TIMP-3 alone, 2000 nM [5]: 107%; EC50 [7]: 3000 nM |
| LRP-1 peptide LA21-31 | 30000 | 92 nM | 29 |  |  |
| LRP-1 peptide LA18 | 2200 |  |  |  |  |
| LRP-1 Cluster II (C II) (peptide) |  | 45.5 nM |  | 100000 | EC50 [7]: 32.5 nM |
| LRP-1 peptide LA19 | 2200 |  |  |  |  |
| LRP-1 peptide LA29-31 | 1200 | 1000 nM and 300 nM | 5 |  | % of the inhibitory activity of TIMP-3 + peptide compared to TIMP-3 alone, 16 nM [5]: 96%; % of the inhibitory activity of TIMP-3 + peptide compared to TIMP-3 alone, 80 nM [5]: 99%; % of the inhibitory activity of TIMP-3 + peptide compared to TIMP-3 alone, 400 nM [5]: 97%; % of the inhibitory activity of TIMP-3 + peptide compared to TIMP-3 alone, 2000 nM [5]: 96% |
| LRP-1 peptide LA3 | 2200 |  |  | 2000 |  |
| LRP-1 peptide LA4-5 | 2200 |  |  | 2000 | EC50 [10]: 2000 nM |
| LRP-1 peptide LA26-28 | 6500 | 268 nM |  | 9000 |  |
| LRP-1 peptide LA27 | 2200 |  |  |  |  |
| LRP-1 peptide LA5 | 2200 |  |  | 2000 | EC50 [10]: 1080 nM |

From patent publication US20120231013A1
